{"source": "patent US8916159B2", "about": "“Selenocysteine mediated hybrid antibody molecules” (The United States of America, as represented by the …, priority 2007, dated 2014)", "key": {"folate receptor": {"target": "T1, folate receptor (Homo sapiens, UniProt P15328)", "T1 construct": "endogenous in cells; host or cells: SKOV-3", "T1 sequence (P15328 25-234)": "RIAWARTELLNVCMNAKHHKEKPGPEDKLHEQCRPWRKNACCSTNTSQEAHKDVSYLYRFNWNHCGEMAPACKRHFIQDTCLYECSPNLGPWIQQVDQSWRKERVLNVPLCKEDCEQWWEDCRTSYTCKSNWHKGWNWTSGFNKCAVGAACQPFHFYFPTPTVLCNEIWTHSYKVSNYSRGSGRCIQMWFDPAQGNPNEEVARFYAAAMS", "experiment": "Flow cytometry binding to SKOV-3 cells expressing folate receptor", "conditions": "SKOV-3, three click reaction conditions, FIG. 17", "protocol": "The results are depicted in the flow cytometry plot of FIG. 17.\nThe folate was further equipped with an alkyne group using methods described in Thomas et al., Poster MEDI-409, 238th ACS National Meeting, Washington, D.C. (Aug. 16-20, 2009). Using azide-alkyne Huisgen cycloaddition (“click chemistry”) under various reaction conditions, biotin-azide was added to the resulting Fc-Sec-His/folate-alkyne. The results of three reaction conditions are also depicted in the flow cytometry plot of FIG. 17."}, "integrin α4": {"target": "T2, integrin α4 (Homo sapiens, UniProt P05556+P13612)", "T2 construct": "endogenous in cells", "experiment": "Competition with anti-integrin α4 mAb for binding to integrin α4β1-expressing lymphoma cells", "conditions": "PEG-SU-Lys-Lys-mal linker conjugate, FIG. 14", "from_the_text": "Using solid-phase synthesis techniques as described in Thomas et al., Bioorg. Medicinal Chem. Letters, 18: 5785-88 (2008), the PEG-SU-Lys-Lys-mal linker was used to couple LLP2A to Fc-Sec. A biotin reporter molecule was employed as described in Example 2 to allow detection of Fc covalent adducts by avidin pull-down experiments followed by ELISA visualization. The Fc-Sec-LLP2A conjugate was then incupated with integrin α4β1-expressing cells. The cells were washed and then treated with Cy5-labeled rabbit anti-human IgG. Under these conditions, cells only fluoresced if both the Fc and LLP2A components of the hybrid construct were present."}, "Raji cells [1]": {"system": "Raji cells", "conditions": "0.6 μM; for complement-dependent cytotoxicity with rabbit complement: 10% rabbit complement 2 hours 37° C.", "protocol": "To determine whether Sec-conjugation had any effect on the cytotoxic effects of Rituximab, Raji cells were centrifuged and resuspended in 1% (v/v) FCS/PBS, and aliquots of 50 μL containing 5×10^5 cells were distributed into a V-bottom 96-well plate (Corning). After incubation with Rituximab, Rituxi-Sec-His/fluorescein, or Rituxi-Fab-Sec-His/biotin (0.6 μM) for 1 hour on ice, cells were washed twice and incubated with 10% rabbit complement of 3-4 weeks old rabbits (Pel-Freez) for 2 hours at 37° C. After the addition of 100 μg/ml propidium iodide (PI), dead cells were detected by PI accumulation using a FACScan instrument (Becton-Dickinson)."}, "Raji cells [2]": {"system": "Raji cells", "experiment": "Flow cytometry binding to Raji cells", "parameters": "species or system Human", "conditions": "for fluorescence signal on Raji cells after exposure of protein to FITC maleimide derivative: FIG. 11C", "protocol": "Flow cytometry assays were conducted on the resulting conjugates. Human Burkitt's lymphoma cell line Raji was purchased from ATCC. All incubations were for 1 hour on ice. […] After washing twice with 1% (v/v) FCS/PBS, the cells were incubated with a 1:25 dilution of PE-coupled streptavidin (BD Biosciences) or with FITC-coupled goat anti-human Fab polyclonal (Fab′)2 fragments (Jackson ImmunoResearch Laboratories). […] After washing twice as before, the cells were resuspended in 400 μL 1% (v/v) FCS/PBS and analyzed using a FACScan instrument (Becton-Dickinson). For the competition experiment, the cells were first incubated with the anti-CD52 monoclonal antibody CAMPATH® or Rituximab (all 0.6 μM). For detection, a 1:25 dilution of PE-coupled streptavidin (BD Biosciences) was used."}, "[3]": {"experiment": "Serum levels in mice after i.v. injection, flow cytometry using Raji cells", "assay_type": "in vivo, C57BL/6 mice", "conditions": "i.v. 100 μL of 3 mg/mL, bleeds 30 min to 96 h", "protocol": "The mouse study was carried out by Biocon, Inc. (Rockville, Md.) in accordance with the Guide for the Care and Use of Laboratory Animals published by the National Institutes of Health. […] Sera from retro-orbital bleeds were prepared 30 min, 24 h, 48 h, 72 h, and 96 h after injection. Sera were diluted ten-fold in 1% (v/v) FCS/PBS and analyzed by flow cytometry using Raji cells and Cy5-coupled goat anti-human F(ab′)2 polyclonal antibodies (Jackson ImmunoResearch) or PE-coupled streptavidin as described in Example 10 (FIG. 16C)."}}, "note": "Where two headings read alike, the source gives them in different places. Non-standard residues stand in square brackets, D forms with d. Groups on a side chain read outwards from the residue. No end group written: not given here. folate‑alkyne = folate derivative bearing an alkyne group; Sec = N[C@@H](C[SeH])C(=O)O; biotin‑azide = biotin-azide", "data": [{"substance": "Fc-Sec-His/folate-alkyne: Fc-Sec-His folate conjugate equipped with an alkyne group; biotin-azide clicked on (chain (part 1 of 2) EPKSSDKTHTCPPCP; chain (part 2 of 2) A[Sec]([folate‑alkyne-biotin‑azide])HHHHHH; not fully specified; cysteine pairing not given here; also: biotin-azide clicked on)", "values": [{"measurement": "folate binding after biotin-azide click onto alkyne conjugate", "setting": "folate receptor", "value": "retained its folate binding properties"}]}, {"substance": "Fc-Sec-LLP2A: LLP2A coupled to Fc-Sec using the PEG-SU-Lys-Lys-mal trifunctional linker with biotin reporter (chain (part 1 of 2) EPKSSDKTHTCPPCP; chain (part 2 of 2) Ala-X; not fully specified (some residues); cysteine pairing not given here; also: LLP2A coupled via PEG-SU-Lys-Lys-mal trifunctional linker with biotin reporter, site not given here)", "values": [{"measurement": "binding to lymphoma cells in the presence of anti-integrin α4 mAb", "setting": "integrin α4", "value": "diminished binding"}]}, {"substance": "Rituximab-Sec-His/fluorescein: Rituximab-Sec-His conjugated at Sec to fluorescein-5-maleimide (FITC derivative with maleimide moiety)", "values": [{"measurement": "complement-dependent cytotoxicity with rabbit complement", "setting": "Raji cells [1]; listed as Rituxi-Sec-His/fluorescein", "value": "as potent as Rituximab"}, {"measurement": "complement-dependent cytotoxicity with rabbit complement", "setting": "Raji cells [1]; listed as Rituximab-Sec-His/FITC", "value": "equal cytotoxicity"}, {"measurement": "fluorescence signal on Raji cells after exposure of protein to FITC maleimide derivative", "setting": "Raji cells [2]", "value": "clear and homogenous signal"}]}, {"substance": "Rituximab-stop: Rituximab protein without inserted selenocysteine", "values": [{"measurement": "fluorescence signal on Raji cells after exposure of protein to FITC maleimide derivative", "setting": "Raji cells [2]", "value": "only basal levels"}]}, {"substance": "Rituximab: commercially available CD20 antibody [reference compound]", "values": [{"measurement": "complement-dependent cytotoxicity with rabbit complement", "setting": "Raji cells [1]", "value": "strong cytotoxic effect"}, {"measurement": "cytotoxicity of antibody alone, without rabbit serum", "setting": "Raji cells [1]; no rabbit serum, FIG. 12A", "value": "neither the antibody nor rabbit serum alone mediated complement-dependent cytotoxicity"}, {"measurement": "binding to Raji cells", "setting": "Raji cells [2]; 0.6 μM, 1 hour on ice, FIG. 11A", "value": "equal affinities"}, {"measurement": "serum signal over the course of the experiment", "setting": "[3]", "value": "only marginal weakening"}]}]}
